Assay results as given in the supplement of paper PMC10065799, “High-throughput profiling of sequence recognition by tyrosine kinases and SH2 domains using bacterial peptide display” (eLife, 2023).

Experiments:
[1] = molecular target: MERTK (UniProt Q12866); assay: phosphorylation enrichment, bacterial display (enrichment ratio); higher = better substrate or ligand; peptides without Tyr show the background
[2] = system: c-Src; assay: as above
[3] = molecular target: Hck (UniProt P08631); assay: as above
[4] = system: c-Abl (mouse); assay: as above
[5] = system: AncSZ; assay: as above
[6] = molecular target: FGFR1 (UniProt P11362); assay: as above
[7] = molecular target: EPHB2 (UniProt P29323); assay: as above
[8] = molecular target: FGFR3 (UniProt P22607); assay: as above
[9] = system: Fer (mouse); assay: as above
[10] = molecular target: Fes (UniProt P07332); assay: as above
[11] = molecular target: EPHB1 (UniProt P54762); assay: as above
[12] = molecular target: Fyn (UniProt P06241); assay: as above
[13] = molecular target: Jak2 (UniProt O60674); assay: as above
[14] = molecular target: Grb2 SH2 (UniProt P62993); assay: SH2 binding enrichment of the phosphorylated peptide, bacterial display (enrichment ratio); higher = better substrate or ligand; peptides without Tyr show the background
[15] = molecular target: c-Src SH2; assay: as above
[16] = molecular target: SHP2-C SH2; assay: as above
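For SH2 binding enrichment of the phosphorylated peptide, bacterial display in this document: peptide library displayed on the E. coli surface as eCPX fusions, selected cells deep-sequenced, score is each peptide's frequency after selection divided by its frequency in the input.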
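For phosphorylation enrichment, bacterial display in this document: 11-residue human phosphosite peptides and single-mutation variants displayed on the E. coli surface, counted by deep sequencing, each peptide's frequency after selection divided by its frequency in the unselected input library; frequency after pTyr selection over input frequency; kinase dosed for 20-30% of maximal phosphorylation in three min.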

Sequence of MERTK (Q12866 whole entry, looked up): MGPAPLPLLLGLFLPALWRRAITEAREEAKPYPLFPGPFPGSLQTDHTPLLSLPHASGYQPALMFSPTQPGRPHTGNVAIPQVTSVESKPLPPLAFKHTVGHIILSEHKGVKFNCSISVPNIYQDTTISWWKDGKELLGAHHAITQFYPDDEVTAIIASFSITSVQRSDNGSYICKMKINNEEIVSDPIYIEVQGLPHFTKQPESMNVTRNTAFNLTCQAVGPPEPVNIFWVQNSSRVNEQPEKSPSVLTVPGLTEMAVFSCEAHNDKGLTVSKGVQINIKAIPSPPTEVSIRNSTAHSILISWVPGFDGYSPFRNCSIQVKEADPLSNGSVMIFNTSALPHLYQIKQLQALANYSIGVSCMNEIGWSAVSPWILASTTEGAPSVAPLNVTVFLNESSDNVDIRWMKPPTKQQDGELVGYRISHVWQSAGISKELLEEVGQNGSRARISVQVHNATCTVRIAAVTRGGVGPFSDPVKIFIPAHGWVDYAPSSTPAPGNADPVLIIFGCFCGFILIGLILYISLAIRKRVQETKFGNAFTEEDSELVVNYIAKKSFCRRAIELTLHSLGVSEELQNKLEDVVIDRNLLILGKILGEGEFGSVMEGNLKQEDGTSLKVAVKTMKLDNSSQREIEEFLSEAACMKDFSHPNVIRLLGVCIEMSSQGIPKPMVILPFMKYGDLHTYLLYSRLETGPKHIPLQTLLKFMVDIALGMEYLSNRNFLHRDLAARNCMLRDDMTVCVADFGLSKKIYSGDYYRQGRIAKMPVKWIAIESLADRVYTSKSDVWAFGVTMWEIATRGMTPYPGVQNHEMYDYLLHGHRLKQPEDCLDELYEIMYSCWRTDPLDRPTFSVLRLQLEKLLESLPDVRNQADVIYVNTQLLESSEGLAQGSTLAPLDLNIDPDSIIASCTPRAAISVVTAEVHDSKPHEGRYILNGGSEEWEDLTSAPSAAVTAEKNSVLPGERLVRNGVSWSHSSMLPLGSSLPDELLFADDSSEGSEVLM
Sequence of Jak2 (O60674 whole entry, looked up): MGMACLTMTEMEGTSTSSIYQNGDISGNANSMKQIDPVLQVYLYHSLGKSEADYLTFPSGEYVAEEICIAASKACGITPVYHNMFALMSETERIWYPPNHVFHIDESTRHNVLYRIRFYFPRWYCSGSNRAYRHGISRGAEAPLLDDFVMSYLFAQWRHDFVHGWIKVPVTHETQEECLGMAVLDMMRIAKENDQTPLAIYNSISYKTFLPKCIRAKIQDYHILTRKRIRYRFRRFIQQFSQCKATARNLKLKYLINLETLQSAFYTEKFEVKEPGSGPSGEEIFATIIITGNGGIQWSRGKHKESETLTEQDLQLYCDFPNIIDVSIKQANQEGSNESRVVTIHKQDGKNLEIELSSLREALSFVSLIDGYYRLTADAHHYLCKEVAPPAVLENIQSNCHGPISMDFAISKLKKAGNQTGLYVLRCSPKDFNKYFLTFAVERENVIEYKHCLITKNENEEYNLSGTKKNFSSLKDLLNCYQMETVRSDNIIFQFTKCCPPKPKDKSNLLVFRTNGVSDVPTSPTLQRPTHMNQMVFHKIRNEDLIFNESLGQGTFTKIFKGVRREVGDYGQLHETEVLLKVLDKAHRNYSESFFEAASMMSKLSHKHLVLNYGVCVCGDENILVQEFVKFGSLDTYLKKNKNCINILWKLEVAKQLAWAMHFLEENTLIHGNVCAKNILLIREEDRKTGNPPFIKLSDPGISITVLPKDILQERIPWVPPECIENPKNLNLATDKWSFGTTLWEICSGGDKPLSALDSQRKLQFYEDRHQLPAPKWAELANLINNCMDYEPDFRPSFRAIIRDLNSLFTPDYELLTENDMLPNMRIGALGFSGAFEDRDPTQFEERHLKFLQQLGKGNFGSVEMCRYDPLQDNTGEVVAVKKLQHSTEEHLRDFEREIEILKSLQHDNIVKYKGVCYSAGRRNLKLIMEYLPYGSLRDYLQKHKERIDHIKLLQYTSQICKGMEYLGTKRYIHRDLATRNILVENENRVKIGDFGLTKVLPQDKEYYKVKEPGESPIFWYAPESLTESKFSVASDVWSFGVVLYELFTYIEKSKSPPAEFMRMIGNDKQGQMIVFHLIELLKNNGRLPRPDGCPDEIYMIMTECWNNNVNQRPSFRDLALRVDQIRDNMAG
Sequence of Fyn (P06241 whole entry, looked up): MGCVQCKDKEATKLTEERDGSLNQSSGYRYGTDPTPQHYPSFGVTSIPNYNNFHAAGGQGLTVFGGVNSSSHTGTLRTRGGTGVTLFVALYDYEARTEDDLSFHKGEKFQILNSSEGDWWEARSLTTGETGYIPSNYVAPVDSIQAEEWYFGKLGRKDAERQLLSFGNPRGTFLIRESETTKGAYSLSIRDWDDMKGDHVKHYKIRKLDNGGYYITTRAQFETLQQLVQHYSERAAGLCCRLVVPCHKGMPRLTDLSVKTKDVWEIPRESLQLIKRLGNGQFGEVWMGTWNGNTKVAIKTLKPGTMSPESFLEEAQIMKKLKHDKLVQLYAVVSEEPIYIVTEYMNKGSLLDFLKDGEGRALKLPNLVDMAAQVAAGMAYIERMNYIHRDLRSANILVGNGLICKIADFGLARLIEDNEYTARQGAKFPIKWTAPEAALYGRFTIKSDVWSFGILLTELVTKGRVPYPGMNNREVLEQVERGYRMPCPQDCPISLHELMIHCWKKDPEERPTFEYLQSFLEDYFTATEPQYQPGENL
Sequence of Fes (P07332 whole entry, looked up): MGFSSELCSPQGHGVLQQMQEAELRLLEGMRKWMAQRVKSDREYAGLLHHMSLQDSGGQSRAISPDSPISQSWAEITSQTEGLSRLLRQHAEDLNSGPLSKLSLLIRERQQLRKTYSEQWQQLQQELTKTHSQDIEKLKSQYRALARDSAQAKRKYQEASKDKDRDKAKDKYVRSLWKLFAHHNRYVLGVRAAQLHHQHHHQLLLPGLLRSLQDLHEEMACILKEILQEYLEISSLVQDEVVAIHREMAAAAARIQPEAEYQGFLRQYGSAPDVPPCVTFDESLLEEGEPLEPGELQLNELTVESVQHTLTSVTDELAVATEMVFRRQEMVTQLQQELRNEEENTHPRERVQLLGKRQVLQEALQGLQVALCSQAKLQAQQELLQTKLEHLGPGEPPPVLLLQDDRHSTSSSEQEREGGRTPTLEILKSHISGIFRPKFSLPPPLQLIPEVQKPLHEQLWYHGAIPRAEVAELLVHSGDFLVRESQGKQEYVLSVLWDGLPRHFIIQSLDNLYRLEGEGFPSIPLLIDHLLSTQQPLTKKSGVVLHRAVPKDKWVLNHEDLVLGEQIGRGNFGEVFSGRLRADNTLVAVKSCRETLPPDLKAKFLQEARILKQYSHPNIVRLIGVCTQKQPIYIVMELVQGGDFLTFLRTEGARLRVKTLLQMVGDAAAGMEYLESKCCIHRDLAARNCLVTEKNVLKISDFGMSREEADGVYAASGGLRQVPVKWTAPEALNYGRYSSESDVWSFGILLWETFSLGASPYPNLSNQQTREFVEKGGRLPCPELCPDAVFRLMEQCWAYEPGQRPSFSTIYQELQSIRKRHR
Sequence of FGFR1 (P11362 whole entry, looked up): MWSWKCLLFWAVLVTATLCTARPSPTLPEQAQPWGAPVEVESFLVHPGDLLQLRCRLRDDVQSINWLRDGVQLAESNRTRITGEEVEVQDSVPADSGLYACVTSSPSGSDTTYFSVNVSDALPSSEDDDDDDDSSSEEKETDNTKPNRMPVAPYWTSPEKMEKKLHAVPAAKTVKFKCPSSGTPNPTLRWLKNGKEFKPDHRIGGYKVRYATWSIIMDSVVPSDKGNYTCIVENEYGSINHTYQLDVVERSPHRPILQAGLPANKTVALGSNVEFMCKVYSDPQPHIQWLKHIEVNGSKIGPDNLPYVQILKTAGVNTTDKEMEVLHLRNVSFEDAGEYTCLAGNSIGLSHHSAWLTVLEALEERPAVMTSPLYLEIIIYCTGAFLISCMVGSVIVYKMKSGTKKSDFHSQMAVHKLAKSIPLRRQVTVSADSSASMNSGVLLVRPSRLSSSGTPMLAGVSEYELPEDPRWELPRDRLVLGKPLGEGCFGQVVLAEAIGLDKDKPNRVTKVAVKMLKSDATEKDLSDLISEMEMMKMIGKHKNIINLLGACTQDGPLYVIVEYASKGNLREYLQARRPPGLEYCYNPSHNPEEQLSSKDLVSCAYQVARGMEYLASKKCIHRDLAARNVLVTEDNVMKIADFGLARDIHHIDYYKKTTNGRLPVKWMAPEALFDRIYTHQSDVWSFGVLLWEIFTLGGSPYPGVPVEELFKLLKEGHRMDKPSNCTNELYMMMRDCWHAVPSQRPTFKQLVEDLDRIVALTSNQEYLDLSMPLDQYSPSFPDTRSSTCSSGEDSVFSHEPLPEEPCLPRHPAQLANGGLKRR
Sequence of Hck (P08631 whole entry, looked up): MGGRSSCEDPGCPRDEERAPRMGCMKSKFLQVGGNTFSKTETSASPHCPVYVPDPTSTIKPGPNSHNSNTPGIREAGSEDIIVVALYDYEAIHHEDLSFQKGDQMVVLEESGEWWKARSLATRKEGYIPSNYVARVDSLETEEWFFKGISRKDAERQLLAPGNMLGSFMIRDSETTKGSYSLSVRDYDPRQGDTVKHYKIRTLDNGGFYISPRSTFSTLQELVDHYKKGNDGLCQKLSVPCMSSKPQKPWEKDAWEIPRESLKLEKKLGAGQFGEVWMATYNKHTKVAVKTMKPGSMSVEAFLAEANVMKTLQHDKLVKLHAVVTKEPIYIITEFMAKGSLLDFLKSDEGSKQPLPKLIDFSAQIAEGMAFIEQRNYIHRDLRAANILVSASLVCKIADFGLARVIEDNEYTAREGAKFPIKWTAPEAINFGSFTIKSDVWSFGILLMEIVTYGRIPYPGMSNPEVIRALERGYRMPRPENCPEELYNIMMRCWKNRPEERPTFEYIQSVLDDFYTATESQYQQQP

SH2 binding enrichment [14]	SH2 binding enrichment [15]	SH2 binding enrichment [16]	Sequence	phosphorylation enrichment [1]	phosphorylation enrichment [2]	phosphorylation enrichment [3]	phosphorylation enrichment [4]	phosphorylation enrichment [5]	phosphorylation enrichment [6]	phosphorylation enrichment [7]	phosphorylation enrichment [8]	phosphorylation enrichment [9]	phosphorylation enrichment [10]	phosphorylation enrichment [11]	phosphorylation enrichment [12]	phosphorylation enrichment [13]
0.861	0.453	0.453	PRQRRYVFFFS [PTEN_Y174_S170R_YF]	0.574	0.597	0.446	0.385	0.739	0.62	0.343	0.715	0.555	0.605	0.606	0.575	0.262
1.04	0.6	0.682	QLPRGYISILV [BAG3_Y205_P209L]	0.611	0.479	0.675	0.806	1.11	0.589	0.848	0.748	0.663	1.38	0.583	0.563	1.07
0.841	0.485	0.617	MCVKSYTIHFS [F5_Y2153_Y2149C_YF]	0.448	0.565	0.546	1.02	1.47	0.525	0.622	1.01	0.552	1.41	0.718	0.489	1.05
0.835	0.688	0.55	AVLALYNSTRD [TGFB1_Y81]	0.639	0.489	0.511	0.702	0.755	0.493	0.53	0.547	0.531	0.942	0.466	0.462	0.78
0.845	0.376	0.607	GREEFYSTHPH [LRRK2_Y1402]	1.52	0.421	0.679	0.418	0.576	0.505	0.482	0.465	0.528	0.575	0.385	0.42	0.483
0.675	0.474	0.788	PAEPRYRARQR [KCNJ11_Y26]	0.929	0.958	0.878	0.737	1.02	0.576	0.722	0.599	0.673	0.718	0.635	0.746	1
0.901	0.769	0.696	LFFFSYLLKNH [PTEN_Y180_V175L_YF]	0.584	1	0.705	1.66	1.39	0.577	0.976	0.671	0.672	1.98	0.443	0.346	2.28
0.959	3.03	0.769	TVETKYDNISR [SETDB2_Y477]	0.393	0.461	0.477	0.643	0.72	0.545	0.379	0.553	0.433	0.745	0.71	0.519	0.667
8.42	0.516	0.571	EERKTYVNTTL [TEK_Y1102]	0.498	0.446	0.48	0.779	0.83	0.464	0.519	0.586	0.551	0.977	0.526	0.45	0.983
0.796	0.644	0.739	KNRDVYSSDYF [USP24_Y2134]	5.77	2.67	1	0.656	1.1	2.07	4.03	1.15	0.495	0.944	3.39	1.19	0.945
0.891	0.525	0.833	EDGRLYAVKRS [PKMYT1_Y136]	0.433	0.485	0.612	0.692	0.753	0.465	0.496	0.633	0.444	0.856	0.417	0.486	0.728
0.861	0.609	0.707	LKALHYMAQTS [SACS_Y3367_V3369A]	0.749	0.587	0.623	0.907	0.89	0.765	0.634	0.887	0.746	0.94	0.759	0.705	0.751
6.01	0.653	0.82	SKQGKYLNWDA [ATM_Y54]	0.399	0.445	0.427	0.491	0.79	0.437	0.507	0.527	0.454	0.856	0.384	0.396	0.666
0.966	0.699	0.795	QCTSHYPEHVC [SART3_Y541_D540H]	0.417	0.34	0.633	0.585	1.03	0.727	0.747	0.677	0.393	0.991	0.458	0.666	0.766
0.812	0.444	0.553	KDFTIHNPNLL [VANGL1_Y290_Y290H]	0.453	0.439	0.392	0.574	0.698	0.424	0.366	0.561	0.353	0.829	0.516	0.369	0.654
0.779	0.479	0.782	ARKWGYTVKGI [OAT_Y158]	0.377	0.327	0.354	0.724	0.914	0.437	0.448	0.517	0.352	0.912	0.503	0.423	0.668
0.821	0.532	0.694	KKFPDYIQSAM [SGMS2_Y59_I62S_YF]	0.364	0.521	0.482	0.472	0.621	0.479	0.424	0.471	0.332	0.65	0.348	0.401	0.512
0.764	0.472	0.669	YGMSSYITRED [FNDC3B_Y180_T179S]	0.544	0.51	0.431	0.645	0.819	0.529	0.452	0.696	0.524	0.844	0.545	0.423	0.697
0.773	0.378	0.723	KLKRSYPSPDI [USP8_Y717_S718P]	0.467	0.469	0.381	0.547	0.436	0.352	0.291	0.411	0.339	0.546	0.374	0.374	0.58
1.03	0.535	0.825	GKFHMYVAVWT [F13A1_Y161_R159H]	0.351	0.368	0.498	1.45	1.18	0.516	0.479	0.669	0.445	1.1	0.491	0.407	1.06
0.997	0.5	0.619	GKFRMYVAVWT [F13A1_Y161]	0.357	0.342	0.365	0.762	1.14	0.479	0.604	0.665	0.501	1.1	0.508	0.377	1.13
0.748	0.498	0.674	SKEPYYVRCIK [MYO1D_Y586]	0.403	0.451	0.405	0.705	1.06	0.58	0.511	0.669	0.501	0.966	0.566	0.417	1
1.09	0.523	1.05	NHQFDYTFHWT [CSNK1A1_Y294_D297H_YF]	0.573	0.996	0.47	0.803	1.49	3.83	1.3	2.26	5.97	1.08	1.55	0.507	1.09
0.684	0.528	0.518	TSEASYYKSLN [NGEF_Y288]	0.535	0.49	0.407	0.658	0.743	0.516	0.498	0.707	0.464	0.789	0.575	0.464	0.802
0.834	0.456	0.611	KELALYDENWF [RPS19_Y48_P47L]	7.19	1.39	1.41	1.06	1.5	0.729	11.5	0.947	7.67	1.43	8.19	1.02	1.44
0.721	0.589	0.75	KSAAIYNPVIF [RHO_Y301_YF]	4.6	4.71	8.01	1.11	0.757	0.567	0.519	0.557	16.1	0.939	0.559	5.56	0.634
1.14	1.25	0.613	PKGWNYELPAT [PROM1_Y34_A31G]	0.45	0.383	0.516	0.696	1	0.518	0.454	0.592	0.433	0.867	0.597	0.531	0.698
0.791	0.544	0.642	TNGFTCGSSHQ [MANEA_Y331_Y331C]	0.435	0.392	0.477	0.728	0.608	0.46	0.486	0.545	0.412	0.836	0.451	0.618	0.663

Sequence	SH2 binding enrichment [14]	SH2 binding enrichment [15]	SH2 binding enrichment [16]	phosphorylation enrichment [1]	phosphorylation enrichment [2]	phosphorylation enrichment [3]	phosphorylation enrichment [4]	phosphorylation enrichment [5]	phosphorylation enrichment [6]	phosphorylation enrichment [7]	phosphorylation enrichment [8]	phosphorylation enrichment [9]	phosphorylation enrichment [10]	phosphorylation enrichment [11]	phosphorylation enrichment [12]	phosphorylation enrichment [13]
CTTIFYNFMCN [TP53_Y234_H233Y_YF]	2.09	1.45	1.8	1.93	1.69	0.562	0.597	1.12	1.05	0.634	1.12	1.05	1.42	0.686	0.592	1.28
